According to the supplement of paper PMC9170038:

Tested on: MS2 coat protein
Test: apparent KD of MS2 coat protein; designed switch direction (-1 OFF switch, 1 ON switch): -1; higher = weaker reporter binding
In short: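 Each step of the titration lasted 0.8–1.5 h at the lowest concentration and 10–20 min at the highest. The protein, SNAP-549-labelled MS2 coat protein, went from 0.7 or 1.5 nM doubling to 3 µM over RNA switches transcribed on Illumina chips by stalled E. coli RNA polymerase. Normalised cluster fluorescence was curve-fitted, and the per-design median over clusters is given as apparent KD.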

[1] = input ligand: microRNA oligo, concentration not stated
[2] = Eterna round: R95, input ligand: microRNA oligo, concentration not stated
[3] = Eterna round: R95, input ligand: FMN 200 uM
[4] = Eterna round: R95, input ligand: none

Row | Sequence | apparent KD of MS2 coat protein (input ligand: FMN 200 uM) | apparent KD of MS2 coat protein (input ligand: none) | apparent KD of MS2 coat protein [1] | apparent KD of MS2 coat protein [2] | apparent KD of MS2 coat protein [3] | apparent KD of MS2 coat protein [4]
1 | UGUUAAGCAGGAUAUACGUUGUCCUAUUAAACUAGUGAAGGACAUGAGGAUCACCCAUGUAGAAGGGCUAAGCG [Eternabot (L2) Solution 70] (Eterna round: R97, puzzle: Exclusion 2) | 85.2 nM | 83.7 nM |  |  |  | 
2 | UAAGCAAGUGAGCCGAUUCACAUGAGGAUCACCCAUGUAAGAGAGGAUAUUUGAUUGGAUCGAUUAGAGAAGGUUCUAAUGUGG [Eternabot solution 25] (Eterna round: R96, puzzle: Exclusion NG 3) | 87.2 nM | 37.2 nM | 28.9 nM |  |  | 
3 | AAAGAUGUAGGAUAUGUCCAUCCAGACAUGAGGAUCACCCAUGUGAGGGCCGGGUGUUGGGCAGAAGGACACCGGU [Eternabot (Original) Solution 19] (Eterna round: R97, puzzle: Exclusion 5) | 27.2 nM | 31.4 nM |  |  |  | 
4 | GAGAUGUGAGGAUAUCUAGACCGCGGAAGAGCUGCGGUCCGAGAGAAGGCACAUGAGGAUCACCCAUGUGAUGA [Attere] (puzzle: Exclusion 4) |  |  |  | 38.4 nM |  | 
5 | CAGUACUACAAGCUUGGGAACAUGAGGAUCACCCAUGUUCGUCUUAUUGAUCUAGGUACGCUGACGUACCUAGAUCU [JL-sv1-2.17 Brourd mod] (puzzle: Sensor v3, turn-off variant 1) |  |  |  | 27.1 nM | 16.5 nM | 14.7 nM
6 | GAAAACGCAGAGGAUAUUUCAGAUCAAAGCUGCAAAGAAGGCUGCACAUGAGGAUCACCCAUGUGGUCUUUAAA [Mod of Quesina - Jieux - Exclusion 6] (Eterna round: R97, puzzle: Exclusion 6) | 286 nM | 20.7 nM |  |  |  | 
7 | ACGUGAUAUCUGUCGGUGGACAUGAGGAUCACCCAUGUAAGCUUUUUGCUCAUCUUAUAACCCGGUGACAGACCUUC [Zaisbela] (puzzle: Sensor v3, turn-off variant 1) |  |  |  | 413 nM | 26.8 nM | 29.5 nM
8 | GAGCUGUGAGGAUAUACAUGAGGAUCACCCAUGUUAAGGAAGUGGUGUAUAUUGUAGUGUAGAAGGCACUUGUG [JR_Ex3_Sub025] (Eterna round: R97, puzzle: Exclusion 3) | 600 nM | 306 nM |  |  |  | 
9 | UUAAUGACUGUGAGGAUAUCGGAUAGAUAGAUAUUUGAGAAGGUACAUGAGGAUCACCCAUGUGUGAUUAGAGA [Brourd's EX4 #66] (Eterna round: R97, puzzle: Brourd's mod of Exclusion 4) | 246 nM | 253 nM |  |  |  | 
10 | CCGGAUAUGCAGGAUAUCGUAUCGGAUACGAUACGAGAAGGGUAUACAUGAGGAUCACCCAUGUGUCCUACCGG [Mat - Exclusion 6 - Eli Mod - D85] (puzzle: Exclusion 6) |  |  |  | 19.8 nM |  | 
11 | CUGGUCCGAGGAUAUAUGAUGUGAAACAUGAGGAUCACCCAUGUAAUAUUAUGGAGGUAAAUAGAAGGCGGACUAG [Mat - Exclusion 5 - JL mod - D35] (puzzle: Exclusion 5) |  |  |  | 55.2 nM | 45.3 nM | 60 nM
12 | UCCAGCAUACGGAGAUCCAACAUGAGGAUCACCCAUGUCUGGAAAGCUUUUUGCUUGUCUUAUCCUCCUCUGUGUGC [Design #6] (Eterna round: R97, puzzle: Sensor, turn-off variant 1) | 22.5 nM | 22.9 nM |  |  |  | 
13 | CUGAGGUAGCGGUCCUAUGACAUGAGGAUCACCCAUGUACCUUGCUACGAGCUUUUUGCUCGUCUUAUGAUUCUCGG [JL Atriat mod 4] (puzzle: Sensor v3, turn-off variant 1) |  |  |  | 93.9 nM | 166 nM | 250 nM
14 | UGCAGACGAGGAUAUGAUUAAUAAUACAUGAGGAUCACCCAUGUAAUACUGAUCUAUGGAUCAGAAGGUGUCUGCA [E5/6-B2] (Eterna round: R97, puzzle: Exclusion 5) | 17.7 nM | 28.3 nM |  |  |  | 
15 | CUCAUGUCAGGAUAUCAGGCAGGAAGCUGCCAAAAGUGGGAUGAGAAGGGACAUGAGGAUCACCCAUGUAAAUA [Mazasoti] (Eterna round: R97, puzzle: Exclusion 4) | 355 nM | 218 nM |  |  |  | 
16 | AGAUGUAGAUACCGAUCCUACAUGAGGAUCACCCAUGUAGCAAGACGUGCACGCGAAGCUCGUCAGACUACCAGAAG [salish99_TOv1_r3_083] (puzzle: Sensor v3, turn-off variant 1) |  |  |  | 99.7 nM | 114 nM | 137 nM
17 | UUUUUAUAUGAAGGAUAUACUUAACAUGAGGAUCACCCAUGUGGUGUUGUGAGUGAGUGAGUUUAGUAGAAGGUCAGUUCUUUU [JMF's solution 79] (Eterna round: R96, puzzle: Exclusion NG 2) | 414 nM | 611 nM | 497 nM |  |  | 
18 | UCAUGUUAGCAGGAUAUGCUAUUUAUUUUUUAUGCAGAAGGGCUUACAUGAGGAUCACCCAUGUAUUAAGUUUU [JR_E6_Sub074] (puzzle: Exclusion 6) |  |  |  | 115 nM |  | 
19 | UGUACUAUGCGAGCUGACUUGCGUAGUGCAGCAGGUGUUACAUGAGGAUCACCCAUGUCCUCAUUUGCUCGUCUUAU [SL-sv3-2.04 JL mod] (puzzle: Sensor v3, turn-off variant 2) |  |  |  | 231 nM | 289 nM | 200 nM
20 | GCCCUCACAGUGAGGAUAUCUGAGCAUCCCGCUAAGGAGAAGGCACAUGAGGAUCACCCAUGUAAUUGGUUUAA [BmEX4 A.22] (Eterna round: R97, puzzle: Brourd's mod of Exclusion 4) | 124 nM | 39.8 nM |  |  |  | 
21 | CAAGAAAAGAAAGGAUAUAGCGCGGAGCCGCAGCUAGAAGGUUCGGUGGGUAUCCUGUAACAUGAGGAUCACCCAUGUAAAGAG [Texelara] (Eterna round: R96, puzzle: Exclusion NG 1) | 499 nM | 527 nM | 109 nM |  |  | 
22 | GGAAAGCAAGGAUAUACAAGGAGACGAUGGAAAGUAGAGCGACAUGAGGAUCACCCAUGUAGAAGGUGCGAGAG [JR_Exclu2_Sub038] (puzzle: Exclusion 2) |  |  |  | 39.1 nM | 40.7 nM | 34.8 nM
23 | CUGAGCAGACGGAGAUCCAACAUGAGGAUCACCCAUGUCUCAAAAGCUUUUUGCUCAUCUUAUCGUACCUUGGUGCU [JL ViennaUCT Edcesobi mod 1] (puzzle: Sensor v3, turn-off variant 1) |  |  |  | 20.2 nM | 406 nM | 445 nM
24 | AUGUUAUUCUGAGGAUAUUGUUUAAUCCUCUCACAUGAGGAUCACCCAUGUUUCCGUGUUUACCGCAAGAAGGCAGUUUUGUUU [JR_ExcNG2_Sub026] (Eterna round: R96, puzzle: Exclusion NG 2) | 63.6 nM | 61.8 nM | 48.7 nM |  |  | 
25 | CUUUAACAAGCGAGAUCCAACAUGAGGAUCACCCAUGUGCAUCCACGAUUAGUGGGUGCGAAAGCUCGUCUUAUAUG [v1] (Eterna round: R97, puzzle: Sensor, turn-off variant 1) | 20.9 nM | 21.6 nM |  |  |  | 
